Measured values as given in article doi:10.1101/2023.06.11.543863.
Like-named read-outs stand apart in the source and are kept apart here.

Key:
Experiment in all cases: FRET or BRET
[1] = target: E. coli ribosomal pre-translocation complex lacking an A-site tRNA (PRE^−A complex) (E. coli) (UniProt P0A7L0)
[2] = target: E. coli ribosomal pre-translocation complex lacking an A-site tRNA (PRE^−A complex) (E. coli) (UniProt P0A7L0); remark: listed apart in the source
[3] = target: E. coli ribosomal pre-translocation complex lacking an A-site tRNA (PRE^−A complex) (E. coli) (UniProt P0A7L0); remark: listed apart in the source

Chain of UniProt P0A7L0 (P0A7L0 whole entry, looked up, one chain of several): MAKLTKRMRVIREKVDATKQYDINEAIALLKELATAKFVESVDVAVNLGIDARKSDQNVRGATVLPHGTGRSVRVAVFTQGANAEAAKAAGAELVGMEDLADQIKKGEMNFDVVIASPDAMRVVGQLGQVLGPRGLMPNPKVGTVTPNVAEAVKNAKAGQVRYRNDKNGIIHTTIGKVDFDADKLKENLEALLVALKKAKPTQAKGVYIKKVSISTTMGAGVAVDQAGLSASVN

Substance | Kd [1] [µM] | Kd [2] [µM] | Kd [3] [µM]
EQ2-Uup (E. coli Uup with both catalytic glutamates changed to glutamine) (from UniProt P43672 1-635) (enzyme) | 1 | < 6 | 
EQ2-YbiT (E. coli YbiT with both catalytic glutamates changed to glutamine) (from UniProt P0A9U3 1-530) (enzyme) |  | < 6 | 
EQ2-YheS (E. coli YheS with both catalytic glutamates changed to glutamine) (from UniProt P63389 1-637) (enzyme) |  | < 6 | < 1
EQ2-EttA (E. coli EttA with both catalytic glutamates changed to glutamine) (from UniProt P0A9W3 1-555) (enzyme) |  | < 6 | 
